Assay results published in article PMC6391409, “A role for Vibrio vulnificus PecS during hypoxia” (Scientific Reports, 2019).
Read-outs that look alike come from different tables or passages of the source.

Assays:
[1] = test system: VvPecS (PecS) (Vibrio vulnificus YJ016); experiment: EMSA; details: EMSA: 0.5 M Tris pH 8.0, 100 mM NaCl, 6% glycerol, 25 uM EDTA, 0.12% Brij-58, 50 ug BSA, 25 C, 20 min; footprint: 20 mM Tris pH 8.0, 50 mM NaCl, 5 mM MgCl2 …
[2] = test system: VvPecS (PecS) (Vibrio vulnificus YJ016); experiment: EMSA; details: EMSA: 0.5 M Tris pH 8.0, 100 mM NaCl, 6% glycerol, 25 uM EDTA, 0.12% Brij-58, 50 ug BSA, 25 C, 20 min; footprint: 20 mM Tris pH 8.0, 50 mM NaCl, 5 mM MgCl2 …; remark: listed apart in the source
PecS (VvPecS) [3] = biological target: T1, PecS (VvPecS) (Vibrio vulnificus, UniProt A0A3Q0KXQ7); experiment: EMSA: attenuation of purified VvPecS binding to pecS-pecM intergenic DNA (IC50 […]); supported by SYPRO Orange thermal shift (Tm […] to […] °C)
T1 construct: gene VV2_0325; His6-tagged VvPecS (BJE04_RS19600; old locus tag VVA0819), dimer

PecS (VvPecS) [4] = biological target: T1, PecS (VvPecS); experiment: as above; remark: listed apart in the source

T1 sequence (A0A3Q0KXQ7 entry or part of it): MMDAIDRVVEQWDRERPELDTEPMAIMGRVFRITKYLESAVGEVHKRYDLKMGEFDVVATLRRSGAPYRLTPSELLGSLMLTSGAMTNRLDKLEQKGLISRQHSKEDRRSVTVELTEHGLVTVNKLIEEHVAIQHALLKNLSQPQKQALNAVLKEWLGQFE

## iSM (pecS-pecM intergenic DNA)
[1]
  IC50: 366 µM
  Kd: 0.0003 µM
[2]
  IC50: 1500 µM

## iNR (nsrR-nod intergenic DNA)
[1]
  Kd: 0.218 µM

## O=c1[nH]c(=O)c2[nH]c(=O)[nH]c2[nH]1 [urate]
PecS (VvPecS) [3]
  Ki: 226 ± 29 µM

## O=c1[nH]c(=O)c2[nH]cnc2[nH]1 [xanthine]
PecS (VvPecS) [4]
  Ki: 60 ± 5 µM
